Data on one substance can be found in US20060272037A1.

Some results are limits rather than exact numbers.

The target of the assay is Alpha2a adrenergic receptor-cam "chameleon" (mouse). The experiment in a line: cell-based or functional assay.

Take purified Go protein: the Kd of the agonist [^3H]UK14304 on membranes containing α2AAR-cam after addition of purified Go worked out at 3.4 nM, the Kd of the agonist [^3H]UK14304 on the same membranes with Go after addition of GTPγS was found to be 9.6 nM, the reduction by GTPγS of the FRET signal caused by 5 nM UK14304 in the presence of Go was over 50% and the reduction by GTPγS of the binding of 5 nM [^3H]UK14304 in the presence of Go is over 50%.
